In paper doi:10.1101/2023.11.01.565136:

Target: T1, Full-length human E6AP (E6-associated protein) (human), Q05086
T1 chain: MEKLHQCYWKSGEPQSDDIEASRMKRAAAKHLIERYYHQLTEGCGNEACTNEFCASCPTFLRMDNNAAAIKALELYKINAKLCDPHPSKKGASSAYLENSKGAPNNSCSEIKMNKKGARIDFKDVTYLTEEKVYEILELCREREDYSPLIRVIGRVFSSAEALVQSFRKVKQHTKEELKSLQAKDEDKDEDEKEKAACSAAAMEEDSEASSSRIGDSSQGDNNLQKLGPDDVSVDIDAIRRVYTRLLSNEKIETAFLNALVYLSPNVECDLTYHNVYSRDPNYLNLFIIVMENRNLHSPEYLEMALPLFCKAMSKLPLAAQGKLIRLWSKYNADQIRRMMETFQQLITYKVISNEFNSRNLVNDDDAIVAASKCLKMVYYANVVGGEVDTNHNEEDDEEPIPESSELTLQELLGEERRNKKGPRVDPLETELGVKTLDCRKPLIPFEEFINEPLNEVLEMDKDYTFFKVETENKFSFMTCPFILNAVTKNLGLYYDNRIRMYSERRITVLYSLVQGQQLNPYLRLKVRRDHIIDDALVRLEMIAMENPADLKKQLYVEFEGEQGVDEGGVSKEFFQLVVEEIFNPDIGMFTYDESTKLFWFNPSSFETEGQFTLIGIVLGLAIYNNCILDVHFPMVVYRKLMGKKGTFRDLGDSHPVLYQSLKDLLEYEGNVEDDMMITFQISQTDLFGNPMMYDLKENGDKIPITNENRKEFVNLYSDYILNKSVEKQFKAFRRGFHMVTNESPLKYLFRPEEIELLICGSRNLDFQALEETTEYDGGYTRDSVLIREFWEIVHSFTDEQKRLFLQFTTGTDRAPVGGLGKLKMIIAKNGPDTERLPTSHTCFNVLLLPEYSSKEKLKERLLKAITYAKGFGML
Assay: mass photometry
Details: remark: other sources report otherwise

B1: Full-length human E6AP (E6-associated protein), Q05086 1-875 (enzyme)
chain: T1 chain
stoichiometry N: 2
